According to patent publication US20220396819A1, “METHOD FOR PRODUCING PEPTIDE HAVING PHYSIOLOGICAL ACTIVITY, AND PEPTIDE COMPRISING SHORT LINKER” (priority 2019, published 2022):
Entries after “also recorded” stand apart in the source; their conditions may differ. Positions of bridges follow the written chain, without caps; N, C: chain ends. No end group written: not given here.

Columns and labels:
HEL cells = test: Thrombopoietin-like activity, tyrosine phosphorylation levels in HEL cells (dot blot); assay type: cell-based, human; settings: culture supernatant diluted, 20 minutes, rhTPO 10 to 100 ng/mL, FIG. 41
Description: The thrombopoietin-like activity of the TPO-PAS dimer peptide was evaluated by quantification of tyrosine phosphorylation levels in HEL cells, a human leukemia-derived blood cell line. 200,000 HEL cells were cultured in RPMI 1640 medium without FBS (Thermo Fisher Scientific) for 24 hours and starved. The cells were stimulated for 20 minutes in RPMI 1640 medium supplemented with 10 to 100 ng/mL recombinant human TPO (rhTPO, Peprotech) or a culture supernatant containing AET-TPO1-PAS8, TPO2-PAS8, or AET-TPO2-PAS8 at a predetermined dilution factor. As a negative control, PBS (Mock group) or a supernatant expressing no peptide (Empty group) by using an empty vector was added, and stimulation was performed for 20 minutes. After removing the medium and washing the cells once with PBS, the cells were lysed by adding 100 μL of Lysis buffer 17 (R&D Systems) supplemented with Protease inhibitor cocktail (Nacalai Tesque). The lysate solution was centrifuged at 14,000 G for 5 minutes to obtain the supernatant as lysate.
APVDF membrane (Immobilon-P membrane 0.45 m, Merck) was treated with methanol for 1 minute and then with ultrapure water for 5 minutes for hydrophilic treatment. The PVDF membrane was dried, and each cell lysate solution was spotted with a 1 μL pipette and dried. The PVDF membrane was blocked with PVDF Blocking Reagent for Can Get Signal (NOF) at room temperature for 1 hour, and then Can Get Signal Solution 2 (NOF), supplemented with anti-pY antibody-[…] conjugate (Cell Signaling Technology) at 1:5000, was added, followed by an antibody reaction at 4° C. for 24 hours. The membrane was washed 3 times with TBST buffer, Luminata Crescendo Western HRP Substrate (Merck) was added, and a chemiluminescence reaction was carried out. Chemiluminescence was detected using Amersham Imager 600 (GE Healthcare). The luminescence intensity of the detected dots was quantified by ImageJ.

VEGFR [1] = target: T1, VEGFR (Homo sapiens, UniProt P35968); test: VEGF inhibitory ability, luciferase assay in VEGFR/NFAT Reporter HEK293 cells; assay type: cell-based; settings: 10 ng/mL VEGF; for VEGF inhibitory activity (relative VEGF activity): Example 39, cell-free expression solution, FIGS. 71 and 72
T1 construct: host or cells: VEGFR/NFAT Reporter HEK293 cells
T1 sequence (P35968 20-1356): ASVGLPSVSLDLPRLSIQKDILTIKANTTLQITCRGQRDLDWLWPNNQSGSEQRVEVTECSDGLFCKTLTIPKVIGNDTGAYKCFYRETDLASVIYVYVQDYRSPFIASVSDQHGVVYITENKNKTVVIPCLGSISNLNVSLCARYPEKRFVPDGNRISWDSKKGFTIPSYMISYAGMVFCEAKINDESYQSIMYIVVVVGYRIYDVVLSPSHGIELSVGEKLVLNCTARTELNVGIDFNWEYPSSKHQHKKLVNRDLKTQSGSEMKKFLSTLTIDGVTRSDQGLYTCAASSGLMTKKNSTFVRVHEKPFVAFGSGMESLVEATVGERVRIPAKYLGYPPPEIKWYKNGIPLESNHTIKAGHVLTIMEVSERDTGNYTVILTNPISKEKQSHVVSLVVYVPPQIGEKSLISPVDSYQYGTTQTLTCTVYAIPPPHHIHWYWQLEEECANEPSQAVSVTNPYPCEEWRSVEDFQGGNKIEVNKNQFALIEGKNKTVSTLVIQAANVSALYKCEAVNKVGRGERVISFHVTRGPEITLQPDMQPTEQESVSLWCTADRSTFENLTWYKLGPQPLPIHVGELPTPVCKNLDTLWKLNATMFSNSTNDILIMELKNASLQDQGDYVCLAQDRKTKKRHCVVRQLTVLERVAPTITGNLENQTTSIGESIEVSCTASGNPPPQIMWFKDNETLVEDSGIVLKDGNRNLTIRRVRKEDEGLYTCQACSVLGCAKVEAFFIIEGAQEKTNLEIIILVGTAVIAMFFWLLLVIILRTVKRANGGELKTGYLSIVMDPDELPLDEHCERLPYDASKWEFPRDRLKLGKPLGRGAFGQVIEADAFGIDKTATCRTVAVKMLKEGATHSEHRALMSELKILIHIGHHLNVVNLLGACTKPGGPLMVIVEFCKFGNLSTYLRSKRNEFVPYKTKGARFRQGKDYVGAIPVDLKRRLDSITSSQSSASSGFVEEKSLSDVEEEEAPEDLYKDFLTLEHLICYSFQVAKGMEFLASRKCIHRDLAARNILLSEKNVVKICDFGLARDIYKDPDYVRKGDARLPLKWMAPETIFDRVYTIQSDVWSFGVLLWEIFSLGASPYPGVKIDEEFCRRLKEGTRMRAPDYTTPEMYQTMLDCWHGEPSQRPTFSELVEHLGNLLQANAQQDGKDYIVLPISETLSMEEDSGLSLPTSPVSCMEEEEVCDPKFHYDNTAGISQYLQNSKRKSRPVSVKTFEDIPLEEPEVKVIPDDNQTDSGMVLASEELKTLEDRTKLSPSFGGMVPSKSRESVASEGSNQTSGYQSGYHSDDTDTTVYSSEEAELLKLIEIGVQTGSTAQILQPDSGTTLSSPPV
Description: The VEGF inhibitory ability of the VEGFR_D2-PAS heterodimer peptide was evaluated by luciferase assay. 40,000 cell/well VEGFR/NFAT Reporter HEK293 cells (BPS Bioscience) were seeded and incubated overnight in a 5% CO2 incubator at 37° C. The cells were incubated overnight in Assay medium (MEM medium (Nacalai Tesque), 1×MEM Non-Essential Amino Acids Solution (Thermo Fisher Scientific), 1 mM Sodium Pyruvate (Nacalai Tesque), 1% Penicillin-Streptomycin (Sigma Aldrich), and 0.3% FBS (Thermo Fisher Scientific)) to starvation. […] The cells were stimulated by culturing in a 5% CO2 incubator at 37° C. for 4 hours.
One-Glo Luciferase Assay System (Promega) was used to detect the signal intensity. Medium supernatant in an amount of 50 μL was removed, 50 μL of One-Glo reagent was added, and the cells were lysed for 10 minutes at room temperature. The luminescence emitted from the cell lysate solution was detected with a Nivo plate reader (Perkin Elmer) to quantify the activation of the VEGFR-NFAT pathway, and the relative signal activity value for the sample without addition of evaluation compound was determined and used as relative receptor activity.
The VEGF inhibitory ability of the cell-free expressed VEGFR_D2-PAS heterodimer peptide was evaluated by luciferase assay. 40,000 cell/well VEGFR/NFAT Reporter HEK293 cells (BPS Bioscience) were seeded and incubated overnight in a 5% CO2 incubator at 37° C. The cells were incubated overnight in Assay medium (MEM medium (Nacalai Tesque), 1×MEM Non-Essential Amino Acids Solution (Thermo Fisher Scientific), 1 mM Sodium Pyruvate (Nacalai Tesque), 1% Penicillin-Streptomycin (Sigma Aldrich), and 0.3% FBS (Thermo Fisher Scientific)) to starvation. To the Assay medium, 100 μL of 10 ng/mL human recombinant VEGF (R&D Systems) was added, and further, MAET-VEGFR_D2-PAS16, MAET-VEGFR_D2-PAS49-b, MAET-VEGFR_D2-PAS100-b, or a cell-free expression solution containing MAET-VEGFR_D2-GS16, or a cell-free expression solution with unexpressed peptide was added at a predetermined dilution factor, and 100 μL of the Assay medium was added to the cells. The cells were stimulated by culturing in a 5% CO2 incubator at 37° C. for 4 hours.
The VEGF inhibitory ability of the VEGFR_D2-PAS heterodimer peptide linker variant was evaluated by luciferase assay. 40,000 cell/well VEGFR/NFAT Reporter HEK293 cells (BPS Bioscience) were seeded and incubated overnight in a 5% CO2 incubator at 37° C. The cells were incubated overnight in Assay medium (MEM medium (Nacalai Tesque), 1×MEM Non-Essential Amino Acids Solution (Thermo Fisher Scientific), 1 mM Sodium Pyruvate (Nacalai Tesque), 1% Penicillin-Streptomycin (Sigma Aldrich), and 0.3% FBS (Thermo Fisher Scientific)) to starvation. To the Assay medium, 10 ng/mL human recombinant VEGF (R&D Systems) was added, and further, a culture supernatant containing VEGFR_D2-PAS16, VEGFR_D2-PAS49, or VEGFR_D2-PAS100 at a predetermined concentration was added, and 100 μL of the Assay medium was added to the cells. The cells were stimulated by culturing in a 5% CO2 incubator at 37° C. for 4 hours. Note that VEGFR_D2-PAS16 was obtained according to the method described in Example 27.

[2] = target: T2, thrombopoietin receptor c-Mpl (human, UniProt P40238 26-635); test: cell-based or functional assay
T2 sequence (looked up): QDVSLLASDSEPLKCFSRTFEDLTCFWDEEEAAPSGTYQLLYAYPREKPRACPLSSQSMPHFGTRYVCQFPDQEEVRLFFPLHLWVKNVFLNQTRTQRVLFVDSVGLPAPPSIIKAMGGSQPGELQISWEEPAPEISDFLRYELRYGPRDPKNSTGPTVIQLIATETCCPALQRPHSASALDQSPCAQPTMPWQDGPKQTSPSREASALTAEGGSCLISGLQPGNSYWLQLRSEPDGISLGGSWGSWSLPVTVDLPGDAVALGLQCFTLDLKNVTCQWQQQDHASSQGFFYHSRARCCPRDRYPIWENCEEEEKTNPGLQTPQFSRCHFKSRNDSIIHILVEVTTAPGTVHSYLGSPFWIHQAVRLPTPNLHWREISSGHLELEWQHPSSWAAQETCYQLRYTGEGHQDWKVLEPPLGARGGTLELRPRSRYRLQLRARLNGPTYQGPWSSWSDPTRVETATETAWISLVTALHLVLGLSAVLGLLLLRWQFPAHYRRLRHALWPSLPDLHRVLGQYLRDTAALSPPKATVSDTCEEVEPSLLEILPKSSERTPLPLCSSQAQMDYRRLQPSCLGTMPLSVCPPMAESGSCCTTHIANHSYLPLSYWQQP

EpoR = target: T3, EpoR (UniProt P19235 25-508, limits assumed); test: cell-based or functional assay
T3 sequence (looked up): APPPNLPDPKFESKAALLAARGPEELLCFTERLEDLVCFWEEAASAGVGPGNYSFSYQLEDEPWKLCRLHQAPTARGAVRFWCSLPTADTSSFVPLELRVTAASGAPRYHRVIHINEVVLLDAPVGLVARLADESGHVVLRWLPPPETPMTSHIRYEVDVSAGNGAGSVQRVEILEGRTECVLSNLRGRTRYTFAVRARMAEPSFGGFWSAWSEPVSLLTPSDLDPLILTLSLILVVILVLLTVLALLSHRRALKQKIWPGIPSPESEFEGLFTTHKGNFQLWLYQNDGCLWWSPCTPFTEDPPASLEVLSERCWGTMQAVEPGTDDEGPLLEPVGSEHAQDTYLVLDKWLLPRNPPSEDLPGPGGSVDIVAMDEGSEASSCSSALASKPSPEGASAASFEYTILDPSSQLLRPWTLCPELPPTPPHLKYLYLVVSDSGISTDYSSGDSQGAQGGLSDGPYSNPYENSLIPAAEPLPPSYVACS

VEGFR [3] = target: VEGFR (UniProt P35968 20-1356, limits assumed); test: cell-based or functional assay
Chain of VEGFR (UniProt P35968 20-1356, limits assumed) (P35968 20-1356 limits assumed): as the sequence (P35968 20-1356) above

AETGGCADGPTLREWISFCGGAAPAAPAPGGCADGPTLREWISFCGG (disulfide 6-19, 32-45) [AET-TPO2-PAS8]
increase in tyrosine phosphorylation levels compared with rhTPO (HEL cells): equal to or higher than that of rhTPO

MAETAGPTWCEDDWYYCWLFGTAAPAAPAPAAPAAPAPVCWEDSWGGEVCWLFGT (disulfide 10-17, 40-50) [MAET-VEGFR_D2-PAS16]
VEGF inhibitory activity (relative VEGF activity) (VEGFR [1]): higher inhibitory activity than MAET-VEGFR_D2-PAS100-b; also recorded: higher inhibitory activity than MAET-VEGFR_D2-GS16

recombinant human TPO (from UniProt P40225 22-195) (ligand)
relative CREB phosphorylation level (pCREB ELISA, HEL cells, 100 ng/mL rhTPO) [2]: 143%

B1: AET-EPO-GS22 (peptide)
peptide: AETGGLYACHMGPMTWVCQPLRGGGGGSGGGGSGGGGSGGGGSGGGGLYACHMGPMTWVCQPLRG
modifications: disulfide 9-18, 51-60
EC50 (EpoR): 1.3 ng/mL

B2: TPO2-PAS49 (peptide)
peptide: GGCADGPTLREWISFCGGAAPAAPAPAAPAAPAPAAPAAPAPAAPAAPAPAAPAAPAPAAPAAPAPAGGCADGPTLREWISFCGG
modifications: two disulfide bonds in the molecule
relative CREB phosphorylation level (pCREB ELISA, HEL cells) [2]: 131%

B3: AET-EPO-GS8 (peptide)
peptide: AETGGLYACHMGPMTWVCQPLRGGGGGSGGGGGLYACHMGPMTWVCQPLRG
modifications: disulfide 9-18, 37-46
EC50 (EpoR): 0.53 ng/mL

B4: AET-VEGFR_D2-PAS100 (peptide)
peptide: AETAGPTWCEDDWYYCWLFGTAAPAAPAPAAPAAPAPAAPAAPAPAAPAAPAPAAPAAPAPAAPAAPAPAAPAAPAPAAPAAPAPAAPAAPAPAAPAAPAPAAPAAPAPAAPAAPAPAAPAVCWEDSWGGEVCWLFGT
modifications: two disulfide bonds in the molecule
IC50 (VEGFR [1]; Example 46, culture supernatant, 4 hours, Table 8): 86 ng/mL | IC50 (VEGFR [3]): 86 ng/mL

B5: TPO2-PAS100 (peptide)
peptide: GGCADGPTLREWISFCGGAAPAAPAPAAPAAPAPAAPAAPAPAAPAAPAPAAPAAPAPAAPAAPAPAAPAAPAPAAPAAPAPAAPAAPAPAAPAAPAPAAPAAPAPAAPAAPAPAAPAGGCADGPTLREWISFCGG
modifications: two disulfide bonds in the molecule
relative CREB phosphorylation level (pCREB ELISA, HEL cells) [2]: 112%

B6: AET-EPO-PAS100 (peptide)
peptide: AETGGLYACHMGPMTWVCQPLRGAAPAAPAPAAPAAPAPAAPAAPAPAAPAAPAPAAPAAPAPAAPAAPAPAAPAAPAPAAPAAPAPAAPAAPAPAAPAAPAPAAPAAPAPAAPAAPAPAAPAGGLYACHMGPMTWVCQPLRG
modifications: two disulfide bonds in the molecule
EC50 (EpoR): 6.6 ng/mL

B7: AET-VEGFR_D2-GS16 (peptide)
peptide: AETAGPTWCEDDWYYCWLFGTGGGGSGGGGSGGGGSGVCWEDSWGGEVCWLFGT
modifications: disulfide 9-16, 39-49
IC50 (VEGFR [3]): 16 ng/mL

B8: AET-VEGFR_D2-PAS49 (peptide)
peptide: AETAGPTWCEDDWYYCWLFGTAAPAAPAPAAPAAPAPAAPAAPAPAAPAAPAPAAPAAPAPAAPAAPAPAVCWEDSWGGEVCWLFGT
modifications: two disulfide bonds in the molecule
IC50 (VEGFR [3]): 12 ng/mL

B9: TPO2-GS8 (peptide)
peptide: GGCADGPTLREWISFCGGGGGGSGGGGGCADGPTLREWISFCGG
modifications: disulfide 3-16, 29-42
relative CREB phosphorylation level (pCREB ELISA, HEL cells) [2]: 121%

B10: AET-VEGFR_D2-PAS16 (peptide)
peptide: AETAGPTWCEDDWYYCWLFGTAAPAAPAPAAPAAPAPVCWEDSWGGEVCWLFGT
modifications: disulfide 9-16, 39-49
IC50 (VEGFR [3]): 1.5 ng/mL

B11: MAETAGPTWCEDDWYYCWLFGTSAPSPSSAPASASAPASPASASASASPASSPASASSASPAASSASPASSVCWEDSWGGEVCWLFGT (peptide)
chain: MAETAGPTWCEDDWYYCWLFGTSAPSPSSAPASASAPASPASASASASPASSPASASSASPAASSASPASSVCWEDSWGGEVCWLFGT
modifications: MAET-VEGFR_D2-PAS49-b; DISULFID (10)..(17) Disulfid bridge between Cys-10 and Cys-17; DISULFID (73)..(83) Disulfid bridge between Cys-73 and Cys-83
VEGF inhibitory activity (relative VEGF activity) (VEGFR [1]): higher inhibitory activity than MAET-VEGFR_D2-PAS100-b

B12: AET-EPO-PAS49 (peptide)
peptide: AETGGLYACHMGPMTWVCQPLRGAAPAAPAPAAPAAPAPAAPAAPAPAAPAAPAPAAPAAPAPAAPAAPAPAGGLYACHMGPMTWVCQPLRG
modifications: two disulfide bonds in the molecule
EC50 (EpoR): 4.3 ng/mL

B13: TPO2-PAS8 (peptide)
peptide: GGCADGPTLREWISFCGGAAPAAPAPGGCADGPTLREWISFCGG
modifications: disulfide 3-16, 29-42
relative CREB phosphorylation level (pCREB ELISA, HEL cells) [2]: 136%
